Non-standard residues stand in square brackets, D forms with d. Primed or numbered codes have the meaning given here. No end group written: not given here. Me3 = trimethylation of the lysine side chain; Me3(3) = trimethyl (trimethylated lysine); Lys(Me3) = C[N+](C)(C)CCCC[C@H](N)C(=O)O

The target of this assay is T1, Polycomb protein chromodomain (Drosophila melanogaster, UniProt P26017).
T1 construct: The chromodomain (a.a. 1-90) of Polycomb protein was expressed as GST-tagged fusion protein; made in house
T1 sequence (P26017 1-90): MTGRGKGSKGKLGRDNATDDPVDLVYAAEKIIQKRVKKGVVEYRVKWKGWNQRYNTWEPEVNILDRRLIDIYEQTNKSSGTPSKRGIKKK
As to the kind of experiment: Peptide microarray binding of GST-tagged Polycomb chromodomain. The conditions noted are these: Binder if at least two of three spots pass p-value cutoff 0.001 from background. More on the design: dose or concentration left out as unconfirmed. The source says: There are a total of 46 histone peptide sequences (9 a.a. long) with a single lysine-trimethylation site which are conserved between the human and fruit fly H2, H3 and H4 proteins (Table II). These were screened for Polycomb protein chromodomain binding by peptide microarray. Each peptide sequence was screened as triplets, and the fluorescence intensity was quantified with background subtraction individually for each spot from the microarray images by ImageJ^9 and the whole data set was fit to a mixed Gaussian distribution model (FIG. 8, Table III).
Twelve out of the 46 sequences were identified as positive binders under these criteria. Ten of these microarray-identified binders also yielded high mutation matrix score in an independent prediction (Table IV).
The chromodomain (a.a. 1-90) of Polycomb protein was expressed as GST-tagged fusion protein and purified as described in [65]. The purity of the protein was examined by SDS-PAGE electrophoresis followed by both Coomassie staining and western blot using an Anti-GST-HRP conjugate (Santa Cruz Biotechnology). The concentration of purified protein was determined by BCA assay (Amresco). A total of 46 trimethylated histone peptides were synthesized by Sigma Aldrich (desalted, mass spectrometry checked). The peptides were then printed as triplets onto glass slides (ArrayIt), together with a Cy3 marker and an anti-GST (mouse monoclonal) antibody (Thermo) as references.
The peptide microarray was rinsed with TBST buffer (25 mM Tris, 125 mM NaCl, 0.05% Tween-20, pH 8) followed by blocking with 5% non-fat milk in TBST (room temperature 1 hour or 4° C. overnight). The slide was then incubated at 4° C. with Polycomb-GST fusion protein at a final concentration of […] in 5% non-fat milk/TBST for 6 hours. After washing three times for 10 minutes each with TBST, the slide was incubated with an anti-GST mouse monoclonal IgG antibody (Thermo) at a final concentration of 1 μg/mL in 5% non-fat milk/TBST and shaken gently for 1 hour at room temperature. A secondary anti-mouse IgG Dylight-488 conjugated antibody (Thermo) was added to a final concentration of 0.1 μg/mL after three more cycles of 10 minutes washing with TBST. The slide was shaken for 1 hr at room temperature and washed three times with TBST.
The dried microarray slides were scanned using a Hamamatsu NanoZoomer 2.0HT Slide Scanning System (Neuroscience Light Microscopy Facility, UCSD). Data quantification were processed using the microarray processing software ImageJ^9, where the fluorescent intensity of a microarray spot was defined as its own intensity minus the background intensity around it on the scanned image.
“APATGGVKK (not fully specified (residue 8); also: trimethylated lysine, site not given here) [9-residue histone peptide, H3_DROME, trimethylated lysine site 36]”: the “Array Verification” value was “NonBinder”.
As for “APSTGGVKK (also: trimethylated Lys, site not given here) [9-residue histone peptide, H33_DROME, trimethylated lysine site 36]”, the entry is “NonBinder”; as for “ARKSTGGKA (also: trimethylated Lys, site not given here) [9-residue histone peptide, H3_DROME, trimethylated lysine site 14]”, “NonBinder”; as for “ASKDLKVKR (not fully specified (residue 8); also: trimethylated lysine, site not given here)”, “Binder”.
Next, “DNIQGITKP (DNIQGIT[Lys(Me3)]P) [9-residue histone peptide, H4_DROME, trimethylated lysine site 31]”: “NonBinder”; “DSGKAKAKA (not fully specified (residue 8); also: trimethylated lysine, site not given here)”: “Binder”; EELDSLIKA (EELDSLI[Lys(Me3)]A): “NonBinder”.
As for “EETRGVLKV (EETRGVL[Lys(Me3)]V) [9-residue histone peptide, H4_DROME, trimethylated lysine site 59]”, the entry is “NonBinder”.
On to “EGTKAVTKY (also: trimethylated Lys, site not given here)”, for which the “Array Verification” value was “Binder”.
On to ELAGNASKD (ELAGNASK(Me3(3))D), for which the “Array Verification” value was “NonBinder”.
Next, “GGAKRHRKV (also: trimethylated lysine, site not given here) [9-residue histone peptide, H4_DROME, trimethylated lysine site 20]”: “Binder”; “GKDSGKAKA (not fully specified (residue 8); also: trimethylated lysine, site not given here)”: “NonBinder”.
As for “GLGKGGAKR [9-residue histone peptide, H4_DROME, trimethylated lysine site 16]”, the entry is “NonBinder”; as for “GNAARDNKK (also: trimethylated Lys, site not given here)”, “NonBinder”.
Next, “GNASKDLKV (not fully specified (residue 8); also: trimethylated lysine, site not given here)”: “NonBinder”; GRIHRHLKS (GRIHRHLK(Me3(3))S): “Binder”; GVIPHIHKS (GVIPHIHK(Me3(3))S): “NonBinder”.
Turning to HAVSEGTKA (HAVSEGTK(Me3(3))A), the “Array Verification” value is given as “NonBinder”.
Next, “IHKSLIGKK (not fully specified (residue 8); also: trimethylated lysine, site not given here)”: “NonBinder”; “IQAVLLPKK (not fully specified (residue 8); also: trimethylated lysine, site not given here)”: “Binder”.
As for “IYIYKVLKQ (also: trimethylated Lys, site not given here)”, the entry is “NonBinder”; as for “KAGKDSGKA (not fully specified (residue 8); also: trimethylated lysine, site not given here)”, “NonBinder”.
Next, “KGGKGLGKG (not fully specified (residue 8); also: trimethylated lysine, site not given here) [9-residue histone peptide, H4_DROME, trimethylated lysine site 12]”: “NonBinder”; “KRVTIMPKD (not fully specified (residue 8); also: trimethylated lysine, site not given here) [9-residue histone peptide, H3_DROME, trimethylated lysine site 122]”: “NonBinder”; “LARRGGVKR (LARRGGVK(Me3(3))R) [9-residue histone peptide, H4_DROME, trimethylated lysine site 44]”: “NonBinder”.
As to LLPGELAKH (LLPGELAK(Me3(3))H), the “Array Verification” value is recorded as “NonBinder”.
Next, “MAGGKAGKD (not fully specified (residue 8); also: trimethylated lysine, site not given here)”: “NonBinder”; “MDVVYALKR (MDVVYALK(Me3(3))R) [9-residue histone peptide, H4_DROME, trimethylated lysine site 91]”: “Binder”; “NAARDNKKT (also: trimethylated Lys, site not given here)”: “NonBinder”.
Next, “NLCAIHAKR (NLCAIHAK(Me3(3))R) [9-residue histone peptide, H3_DROME, trimethylated lysine site 115]”: “NonBinder”; “PATGGVKKP (not fully specified (residue 8); also: trimethylated lysine, site not given here) [9-residue histone peptide, H3_DROME, trimethylated lysine site 37]”: “NonBinder”.
Next, PDTGISSKA (PDTGISSK(Me3(3))A): “NonBinder”; “PRKQLATKA (PRKQLATK(Me3)A) [9-residue histone peptide, H3_DROME, trimethylated lysine site 23]”: “Binder”; “PSTGGVKKP (also: trimethylated Lys, site not given here) [9-residue histone peptide, H33_DROME, trimethylated lysine site 37]”: “NonBinder”.
As to QAVLLPKKT (QAVLLPKK(Me3)T), the “Array Verification” value is recorded as “NonBinder”.
As for “REIAQDFKT (REIAQDFK(Me3(3))T) [9-residue histone peptide, H3_DROME, trimethylated lysine site 79]”, the entry is “NonBinder”.
As for “REIRRYQKS (REIRRYQK(Me3(3))S) [9-residue histone peptide, H3_DROME, trimethylated lysine site 56]”, the entry is “Binder”.
As for RIHRLLRKG (RIHRLLRK(Me3(3))G), the entry is “Binder”.
RNDEELNKL (RNDEELNK(Me3(3))L): the “Array Verification” value is recorded as “NonBinder”.
Next, “RTKQTARKS (also: trimethylated lysine, site not given here) [9-residue histone peptide, H3_DROME, trimethylated lysine site 9]”: “Binder”; SRLAHYNKR (SRLAHYNK(Me3(3))R): “NonBinder”; “STELLIRKL (STELLIRK(Me3(3))L) [9-residue histone peptide, H3_DROME, trimethylated lysine site 64]”: “NonBinder”.
Next, “TGGKAPRKQ (also: trimethylated Lys, site not given here) [9-residue histone peptide, H3_DROME, trimethylated lysine site 18]”: “NonBinder”; “VTYTEHAKR (VTYTEHAK(Me3(3))R) [9-residue histone peptide, H4_DROME, trimethylated lysine site 77]”: “NonBinder”.
Turning to “YTEHAKRKT (YTEHAKRK(Me3)T) [9-residue histone peptide, H4_DROME, trimethylated lysine site 79]”, the “Array Verification” value was “NonBinder”.

Source of the values: patent US8728980B2, “Peptide microarray and method of use” (The Regents of the University of California, priority 2011, dated 2014).
